Literature values in publication PMC8217106.

Target: BCL9 (Homo sapiens) (UniProt O00512)
UniProt O00512, sequence (O00512 whole entry): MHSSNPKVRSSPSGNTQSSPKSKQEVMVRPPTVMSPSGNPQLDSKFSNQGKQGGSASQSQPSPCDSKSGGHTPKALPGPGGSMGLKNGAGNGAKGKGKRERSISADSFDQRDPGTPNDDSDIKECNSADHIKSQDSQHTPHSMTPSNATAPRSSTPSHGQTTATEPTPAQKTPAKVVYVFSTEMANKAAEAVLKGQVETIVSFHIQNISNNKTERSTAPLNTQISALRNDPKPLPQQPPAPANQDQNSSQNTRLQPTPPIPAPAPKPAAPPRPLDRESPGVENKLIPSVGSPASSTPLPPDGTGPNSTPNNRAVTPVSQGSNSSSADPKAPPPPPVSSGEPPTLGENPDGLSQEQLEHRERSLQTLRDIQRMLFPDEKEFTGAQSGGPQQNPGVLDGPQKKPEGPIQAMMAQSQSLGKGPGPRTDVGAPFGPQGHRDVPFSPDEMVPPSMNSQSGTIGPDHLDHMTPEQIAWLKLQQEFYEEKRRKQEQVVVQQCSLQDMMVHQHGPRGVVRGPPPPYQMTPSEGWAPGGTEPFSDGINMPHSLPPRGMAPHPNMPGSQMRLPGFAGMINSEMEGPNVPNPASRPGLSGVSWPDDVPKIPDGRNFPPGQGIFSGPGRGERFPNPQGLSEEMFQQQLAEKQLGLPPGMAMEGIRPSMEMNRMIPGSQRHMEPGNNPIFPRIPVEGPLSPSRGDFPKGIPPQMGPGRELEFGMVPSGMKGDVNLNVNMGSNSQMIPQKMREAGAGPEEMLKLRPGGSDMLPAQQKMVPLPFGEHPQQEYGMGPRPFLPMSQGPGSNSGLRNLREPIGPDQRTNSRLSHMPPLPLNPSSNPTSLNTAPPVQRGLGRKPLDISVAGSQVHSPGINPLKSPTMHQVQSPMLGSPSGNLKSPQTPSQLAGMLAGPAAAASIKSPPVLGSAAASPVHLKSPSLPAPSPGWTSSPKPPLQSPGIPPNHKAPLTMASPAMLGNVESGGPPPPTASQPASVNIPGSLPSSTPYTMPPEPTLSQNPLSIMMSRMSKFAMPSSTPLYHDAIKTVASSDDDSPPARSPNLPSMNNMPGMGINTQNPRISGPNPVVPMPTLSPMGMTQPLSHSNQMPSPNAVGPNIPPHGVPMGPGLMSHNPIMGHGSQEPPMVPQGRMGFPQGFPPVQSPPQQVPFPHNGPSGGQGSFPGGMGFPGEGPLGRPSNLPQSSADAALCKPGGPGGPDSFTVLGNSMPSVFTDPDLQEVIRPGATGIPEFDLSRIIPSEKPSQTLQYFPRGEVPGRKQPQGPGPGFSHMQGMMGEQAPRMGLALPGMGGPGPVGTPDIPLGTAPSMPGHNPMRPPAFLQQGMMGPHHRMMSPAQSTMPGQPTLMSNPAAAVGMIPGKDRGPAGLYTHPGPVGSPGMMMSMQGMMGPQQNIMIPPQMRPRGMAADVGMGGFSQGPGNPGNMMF

Kd: 470 nM
Substance: β-catenin (from UniProt P35222)
